Measurements as given in article PMC3447989.

Target: Treponema denticola superoxide reductase (Treponema denticola (strain ATCC 35405))
Test: SEC

For “Treponema denticola superoxide reductase (enzyme)”, the stoichiometry N was 2.
